# Source: the supplement of paper PMC10567573
# B1: RHOBTB3 (parent)
# chain: VSHVFMLLFNVKSPTDIQDSSIIR
# B2: KLHDC10 (parent)
# chain: PSLLELAWEKLLAAFPNLANLSRT
# Variants of: B1
# Assay: protein stability index of a GFP-peptide fusion (GPS, HEK-293T) (PSI 1-6); higher = more stable
# Conditions: c terminus: a fixed tail appended
# 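Note: lentivirally expressed fusions sorted by FACS into six bins by GFP to DsRed ratio, PSI derived from sequencing read proportions per bin multiplied by bin number.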
row,Variant,protein stability index
1,R24L,2.66
2,R24W,4.43
3,R24S,3.05
4,R24E,2.74
5,R24F,1.82
6,R24Y,2.58
7,R24H,3.13
8,R24T,3.31
9,R24K,3.56
10,R24Q,4.67
11,R24V,3.67
12,R24N,3.13
13,R24G,3.07
14,I17K,1.51
15,I17W,3.63
16,I17Q,1.58
17,I17C,3.7
18,I17L,2.92
19,I17T,2.71
20,I17H,2.01
21,I17V,2.81
22,I17Y,1.66
23,I17N,2.1
24,I17S,1.18
25,I17R,3.58
26,I17E,1.9

row,Variant,protein stability index
1,I17P,2.88
2,T15K,5.21
3,T15R,4.51
4,T15L,2.3
5,T15S,5.07
6,T15Y,2.63
7,T15N,3.26
8,T15W,1.62
9,T15V,3.4
10,Q18P,3.69
11,Q18W,3.42
12,Q18S,3.12
13,Q18F,2.75
14,Q18V,3.53
15,Q18H,2.48
16,Q18C,2.77
17,Q18N,1.19
18,Q18Y,3.89
19,Q18K,2.82
20,Q18A,3.32
21,Q18E,2.79
22,Q18T,2.57
23,Q18D,4.62
24,I22T,2.35
25,I22Y,2.62
26,I22F,2.15

row,Variant,protein stability index
1,I22R,1.6
2,I22V,3.37
3,I22D,2.8
4,I22P,3.69
5,I22C,2.08
6,I22L,2.98
7,I22N,1.66
8,I22Q,2.63
9,I22W,2.17
10,I23K,1.4
11,I23T,2.43
12,I23N,4.01
13,I23W,2.86
14,I23Q,2.79
15,I23A,4.9
16,I23Y,3.9
17,I23E,1.89
18,I23R,2.85
19,I23H,2.28
20,I23D,2.83
21,I23F,4.66
22,I23G,2.5
23,I23M,4.19
24,I23L,5.03
25,I23S,2.33
26,I23P,1.33

row,Variant,protein stability index
1,I23V,2.75
2,S21V,2.27
3,S21F,3.07
4,S21K,1.84
5,S21Q,4.13
6,S21Y,3.45
7,S21H,2.35
8,S21M,2.9
9,S21T,3.42
10,S21G,3.46
11,S21C,3.76
12,S21I,2.74
13,S21W,3.54
14,S20F,2.79
15,S20M,3.1
16,S20P,3.04
17,S20K,1.33
18,S20I,2.98
19,S20H,2.49
20,S20Y,2.66
21,S20Q,3.34
22,S20W,3.16
23,S20R,1.66
24,S20D,2.91
25,S20A,2.66
26,S20T,2.05

row,Variant,protein stability index
1,D16E,2.96
2,D16H,3.02
3,D16S,2.63
4,D16A,2.52
5,D16N,3.77
6,D16R,3.86
7,D16L,2.16
8,D16C,2.82
9,D16T,2.99
10,D16F,1.93
11,D16M,3.75
12,D16Y,3.61
13,D19I,3.28
14,D19S,2.93
15,D19H,3.04
16,D19L,1.89
17,D19K,2.3
18,D19N,2.96
19,D19M,4.57
20,D19F,2.28
21,D19T,3.05
22,D19E,3.13
23,D19P,2.41
24,D19A,3.48
25,D19Q,2.96
26,D19R,3.06

# Variants of: B2
# Assay: as above
# Conditions: c terminus: a fixed tail appended
row,Variant,protein stability index
1,L6R,1.72
2,L6Y,1.95
3,L6P,1.86
4,L6C,1.92
5,L6A,1.94
6,L6Q,2
7,L6W,3.58
8,L6G,1.64
9,L6E,1.81
10,L6F,2.01
11,L6S,2.28
12,L6T,2.23
13,L6I,2.06
14,L6K,3.43
15,L6H,1.59
16,L6M,2.47
17,L6D,2.2
18,L6N,2.09
19,L6V,2.33
20,E9K,1.97
21,E9R,2.37
22,E9A,1.84
23,E9I,2.07
24,E9N,2.62
25,E9P,2
26,E9H,1.93

row,Variant,protein stability index
1,E9D,2.22
2,E9S,2.35
3,E9W,1.14
4,E9F,1.44
5,E9G,2
6,E9Q,2.34
7,E9T,2.39
8,E9L,2.29
9,E9Y,1.59
10,E9V,1.72
11,E9C,1.5
12,E9M,1.61
13,L11P,2.39
14,L11I,2.23
15,L11A,2.36
16,L11E,2.55
17,L11F,2.29
18,L11C,1.88
19,L11D,2.14
20,L11K,1.62
21,L11N,2.26
22,L11R,2.07
23,L11S,2.2
24,L11G,1.69
25,L11M,1.6
26,L11H,1.92

row,Variant,protein stability index
1,L11Q,2.19
2,L4G,2.58
3,L4K,3.92
4,L4I,2.01
5,L4M,2.47
6,L4Q,3.05
7,L4S,3.52
8,L4F,2.75
9,L4C,3.05
10,L4P,1.83
11,L4D,2.07
12,L4A,3.11
13,L4W,2.53
14,L4T,3.05
15,L4E,2.1
16,L4N,2.83
17,L4Y,2.06
18,L4H,2.88
19,L4V,2.26
20,L4R,3.93
21,W8A,1.77
22,W8E,2.97
23,W8D,2.37
24,W8F,2.56
25,W8G,2.78
26,W8M,1.95

row,Variant,protein stability index
1,W8T,1.94
2,W8N,2.37
3,W8L,1.58
4,W8C,1.85
5,W8Y,2.04
6,W8V,2.19
7,W8H,2.54
8,W8S,2.24
9,W8Q,2.88
10,W8I,1.87
11,W8R,2.52
12,W8K,2.61
13,W8P,3.21
14,K10A,1.84
15,K10V,2.07
16,K10F,2.25
17,K10D,1.84
18,K10M,2
19,K10S,1.72
20,K10E,1.57
21,K10N,1.48
22,K10P,1.64
23,K10G,1.93
24,K10C,1.63
25,K10H,2.09
26,K10W,2.53

row,Variant,protein stability index
1,K10Q,1.95
2,K10I,1.7
3,K10T,1.69
4,K10R,1.9
5,K10L,2.42
6,K10Y,1.75
7,P1K,2.79
8,P1L,2.23
9,P1V,2
10,P1A,2.42
11,P1H,2.21
12,P1M,1.94
13,P1W,1.8
14,P1C,1.86
15,P1Q,2.21
16,P1D,2.06
17,P1R,2.12
18,P1N,2.17
19,P1Y,1.67
20,P1T,1.85
21,P1I,1.92
22,P1E,3.28
23,P1S,1.85
24,P1F,2.52
25,A7M,2.33
26,A7S,2.58

row,Variant,protein stability index
1,A7T,1.28
2,A7K,2.73
3,A7P,1.77
4,A7F,1.86
5,A7L,2.29
6,A7V,2.22
7,A7R,2.35
8,A7H,1.33
9,A7G,1.96
10,A7Y,2.08
11,A7E,2.74
12,A7C,2.23
13,A7D,2.14
14,A7I,1.97
15,A7W,1.84
16,A7N,2.28
17,A7Q,2.29
18,E5H,2.39
19,E5S,3.15
20,E5F,2.06
21,E5K,2.28
22,E5I,1.8
23,E5Y,2.47
24,E5C,1.97
25,E5R,2.29
26,E5N,2.72

row,Variant,protein stability index
1,E5W,1.93
2,E5D,2.88
3,E5Q,2.49
4,E5P,1.34
5,E5L,2.19
6,E5V,1.71
7,E5G,2.42
8,E5T,2.31
9,E5A,2.28
10,E5M,2.04
11,L3Y,1.86
12,L3P,1.72
13,L3S,1.7
14,L3T,1.97
15,L3H,1.75
16,L3N,1.63
17,L3C,1.85
18,L3E,1.83
19,L3A,2.24
20,L3I,1.56
21,L3K,2.33
22,L3M,1.65
23,L3Q,2.29
24,L3W,1.9
25,L3D,2.16
26,L3R,2.06

row,Variant,protein stability index
1,L3V,1.73
2,L3G,1.56
3,L3F,2.22
4,S2K,2.17
5,S2C,1.34
6,S2A,2.09
7,S2P,2.25
8,S2N,1.77
9,S2V,1.86
10,S2D,2.67
11,S2M,1.61
12,S2H,1.78
13,S2R,1.82
14,S2Y,2.36
15,S2G,1.72
16,S2T,1.96
17,S2W,1.94
18,S2Q,1.79
19,S2I,1.17
20,S2E,2.03
21,S2L,2.19
22,S2F,2.41
